Test results reported in US5603943A, “Nasally administrable compositions” (Dott Research Laboratory, priority 1994, dated 1997).
Where “and” joins values, the source holds several entries; their conditions need not be identical. Equal values may be shown once. Ends that are not written are not given here.

What was measured:
[1] = relative, among calcitonins; cited from earlier work
blood sugar = experiment: Average fall of the blood sugar after nasal or subcutaneous insulin (Test Example 1); assay type: in vivo, male New Zealand rabbits
Protocol: A nasally administrable composition in powdery form was prepared by formulating insulin as a physiologically active peptide at the rate of 2.4 mg/rabbit (5 insulin unit (IU)/rabbit) with hydroxyapatite as a carrier having a mean particle size ranging from 40 to 45 μm.
The resulting composition was nasally administered once to six male New Zealand rabbits.
The average fall of the blood sugar was measured and represented in percentage (%) at 0, 15, 30, 60, 120 and 180 minutes after administration.
For comparison, 2 (IU)/rabbit of insulin was administered subcutaneously to six male New Zealand rabbits and the average fall of the blood sugar was measured and represented in percentage (%) at 0, 60, 120, 240 and 360 minutes after administration.

[2] = Nasal absorption, clinical effect and irritation (general statement); assay type: in vivo; conditions: powder in specific carrier, nasal route
[3] = Somatropin blood concentration, nasal powder with hydroxyapatite or calcium carbonate (Test Example 10); assay type: in vivo, healthy male adults (human); conditions: for Concentration of somatropin in the blood: nasal 6.825 somatropin unit/25 mg
Protocol: The blood (2.5 ml) was collected from each of the tested adults prior to administration and then at 5, 10, 15, 20, 30, 45, 60, 90, 120 and 150 minutes after administration.

[4] = Somatropin blood concentration, nasal powder with calcium lactate or calcium carbonate (Test Example 11); assay type: in vivo, healthy male adults (human)
Protocol: The blood (2.5 ml) was collected from each of the tested adults prior to administration and then at 5, 10, 15, 20, 30, 45, 60, 90, 120, 150 and 180 minutes after administration.

Substance: eel calcitonin: naturally occurring calcitonin extracted from the origin and commercially available (CSNLSTCVLGKLSQELHKLQTYPRTDVGAGTP; ends and bridges not checked; cysteine pairing not given here; UniProt P01262 1-32, looked up)
- stability [1]: higher in stability than human calcitonin

Substance: human calcitonin: naturally occurring calcitonin extracted from the origin and commercially available
- stability [1]: higher than salmon calcitonin

Substance: insulin: peptide hormone formulated with hydroxyapatite for nasal administration; also given subcutaneously as comparison
- Blood sugar, percent of initial value (blood sugar; S.C. comparison, 2 IU/rabbit, 0 min): 100%
- Blood sugar, percent of initial value (blood sugar; S.C. comparison, 2 IU/rabbit, 60 min): 57%
- Blood sugar, percent of initial value (blood sugar; S.C. comparison, 2 IU/rabbit, 120 min): 56%
- Blood sugar, percent of initial value (blood sugar; S.C. comparison, 2 IU/rabbit, 240 min): 84%
- Blood sugar, percent of initial value (blood sugar; S.C. comparison, 2 IU/rabbit, 360 min): 94%
- absorption through nasal route (blood sugar; hydroxyapatite, rabbits): high extent of absorption
- Blood sugar, percent of initial value (blood sugar; nasal, 5 IU/rabbit, hydroxyapatite, 0 min): 100%
- Blood sugar, percent of initial value (blood sugar; nasal, 5 IU/rabbit, hydroxyapatite, 15 min): 105%
- Blood sugar, percent of initial value (blood sugar; nasal, 5 IU/rabbit, hydroxyapatite, 30 min): 66%
- Blood sugar, percent of initial value (blood sugar; nasal, 5 IU/rabbit, hydroxyapatite, 60 min): 67%
- Blood sugar, percent of initial value (blood sugar; nasal, 5 IU/rabbit, hydroxyapatite, 120 min): 84%
- Blood sugar, percent of initial value (blood sugar; nasal, 5 IU/rabbit, hydroxyapatite, 180 min): 96%
- absorption into the body [2]: well absorbed into the body
- clinical effects [2]: high clinical effects

Substance: somatropin: somatropin (growth hormone; recombinant type--NOVO), 150 mg per composition (1,000 mg) with carrier
- Concentration of somatropin in the blood ([3]; 0 min (predose), calcium carbonate, individual cases No. 27-28 in order): 0.28 ng/mL and 0.24 ng/mL
- Concentration of somatropin in the blood ([3]; 0 min (predose), hydroxyapatite, individual cases No. 25-26 in order): 0.49 ng/mL and 0.76 ng/mL
- Concentration of somatropin in the blood ([3]; 5 min, calcium carbonate, individual cases No. 27-28 in order): 0.96 ng/mL and 0.55 ng/mL
- Concentration of somatropin in the blood ([3]; 5 min, hydroxyapatite, individual cases No. 25-26 in order): 2.44 ng/mL and 3.18 ng/mL
- Concentration of somatropin in the blood ([3]; 10 min, calcium carbonate, individual cases No. 27-28 in order): 2.55 ng/mL and 1.08 ng/mL
- Concentration of somatropin in the blood ([3]; 10 min, hydroxyapatite, individual cases No. 25-26 in order): 3.59 ng/mL and 2.27 ng/mL
- Concentration of somatropin in the blood ([3]; 15 min, calcium carbonate, individual cases No. 27-28 in order): 2.84 ng/mL and 1.41 ng/mL
- Concentration of somatropin in the blood ([3]; 15 min, hydroxyapatite, individual cases No. 25-26 in order): 4.66 ng/mL and 2.00 ng/mL
- Concentration of somatropin in the blood ([3]; 20 min, calcium carbonate, individual cases No. 27-28 in order): 3.02 ng/mL and 1.78 ng/mL
- Concentration of somatropin in the blood ([3]; 20 min, hydroxyapatite, individual cases No. 25-26 in order): 6.25 ng/mL and 1.86 ng/mL
- Concentration of somatropin in the blood ([3]; 30 min, calcium carbonate, individual cases No. 27-28 in order): 4.11 ng/mL and 1.91 ng/mL
- Concentration of somatropin in the blood ([3]; 30 min, hydroxyapatite, individual cases No. 25-26 in order): 5.21 ng/mL and 1.67 ng/mL
- Concentration of somatropin in the blood ([3]; 45 min, calcium carbonate, individual cases No. 27-28 in order): 8.93 ng/mL and 1.99 ng/mL
- Concentration of somatropin in the blood ([3]; 45 min, hydroxyapatite, individual cases No. 25-26 in order): 4.16 ng/mL and 1.80 ng/mL
- Concentration of somatropin in the blood ([3]; 60 min, calcium carbonate, individual cases No. 27-28 in order): 13.10 ng/mL and 2.11 ng/mL
- Concentration of somatropin in the blood ([3]; 60 min, hydroxyapatite, individual cases No. 25-26 in order): 2.93 ng/mL and 1.61 ng/mL
- Concentration of somatropin in the blood ([3]; 90 min, calcium carbonate, individual cases No. 27-28 in order): 14.60 ng/mL and 1.27 ng/mL
- Concentration of somatropin in the blood ([3]; 90 min, hydroxyapatite, individual cases No. 25-26 in order): 1.45 ng/mL and 1.41 ng/mL
- Concentration of somatropin in the blood ([3]; 120 min, calcium carbonate, individual cases No. 27-28 in order): 5.65 ng/mL and 0.92 ng/mL
- Concentration of somatropin in the blood ([3]; 120 min, hydroxyapatite, individual cases No. 25-26 in order): 0.76 ng/mL and 1.16 ng/mL
- Concentration of somatropin in the blood ([3]; 150 min, calcium carbonate, individual cases No. 27-28 in order): 2.97 ng/mL and 0.80 ng/mL
- Concentration of somatropin in the blood ([3]; 150 min, hydroxyapatite, individual cases No. 25-26 in order): 0.91 ng/mL
- absorption through nasal route ([3]; hydroxyapatite and calcium carbonate): high extent of absorption
- Concentration of somatropin in the blood ([4]; 0 min (predose), nasal 6.825 somatropin unit/25 mg, calcium carbonate, individual cases No. 31-32 in order): 0.15 ng/mL and 0.69 ng/mL
- Concentration of somatropin in the blood ([4]; 0 min (predose), nasal 6,825 (so in the source) somatropin unit/25 mg, calcium lactate, individual cases No. 29-30 in order): 1.15 ng/mL and 0.16 ng/mL
- Concentration of somatropin in the blood ([4]; 5 min, nasal 6.825 somatropin unit/25 mg, calcium carbonate, individual cases No. 31-32 in order): 0.46 ng/mL and 6.15 ng/mL
- Concentration of somatropin in the blood ([4]; 5 min, nasal, 25 mg, calcium lactate, individual cases No. 29-30 in order): 2.56 ng/mL and 0.30 ng/mL
- Concentration of somatropin in the blood ([4]; 10 min, nasal 6.825 somatropin unit/25 mg, calcium carbonate, individual cases No. 31-32 in order): 0.81 ng/mL and 2.81 ng/mL
- Concentration of somatropin in the blood ([4]; 10 min, nasal, 25 mg, calcium lactate, individual cases No. 29-30 in order): 4.29 ng/mL and 0.37 ng/mL
- Concentration of somatropin in the blood ([4]; 15 min, nasal 6.825 somatropin unit/25 mg, calcium carbonate, individual cases No. 31-32 in order): 1.13 ng/mL and 2.49 ng/mL
- Concentration of somatropin in the blood ([4]; 15 min, nasal, 25 mg, calcium lactate, individual cases No. 29-30 in order): 5.11 ng/mL and 0.65 ng/mL
- Concentration of somatropin in the blood ([4]; 20 min, nasal 6.825 somatropin unit/25 mg, calcium carbonate, individual cases No. 31-32 in order): 1.30 ng/mL and 2.20 ng/mL
- Concentration of somatropin in the blood ([4]; 20 min, nasal, 25 mg, calcium lactate, individual cases No. 29-30 in order): 5.87 ng/mL and 0.72 ng/mL
- Concentration of somatropin in the blood ([4]; 30 min, nasal 6.825 somatropin unit/25 mg, calcium carbonate, individual cases No. 31-32 in order): 1.64 ng/mL and 2.12 ng/mL
- Concentration of somatropin in the blood ([4]; 30 min, nasal, 25 mg, calcium lactate, individual cases No. 29-30 in order): 7.70 ng/mL and 0.79 ng/mL
- Concentration of somatropin in the blood ([4]; 45 min, nasal 6.825 somatropin unit/25 mg, calcium carbonate, individual cases No. 31-32 in order): 1.79 ng/mL and 1.67 ng/mL
- Concentration of somatropin in the blood ([4]; 45 min, nasal, 25 mg, calcium lactate, individual cases No. 29-30 in order): 5.99 ng/mL and 0.71 ng/mL
- Concentration of somatropin in the blood ([4]; 60 min, nasal 6.825 somatropin unit/25 mg, calcium carbonate, individual cases No. 31-32 in order): 1.47 ng/mL and 1.36 ng/mL
- Concentration of somatropin in the blood ([4]; 60 min, nasal, 25 mg, calcium lactate, individual cases No. 29-30 in order): 6.16 ng/mL and 0.62 ng/mL
- Concentration of somatropin in the blood ([4]; 90 min, nasal 6.825 somatropin unit/25 mg, calcium carbonate, individual cases No. 31-32 in order): 1.18 ng/mL and 1.02 ng/mL
- Concentration of somatropin in the blood ([4]; 90 min, nasal, 25 mg, calcium lactate, individual cases No. 29-30 in order): 3.39 ng/mL and 0.58 ng/mL
- Concentration of somatropin in the blood ([4]; 120 min, nasal 6.825 somatropin unit/25 mg, calcium carbonate, individual cases No. 31-32 in order): 0.79 ng/mL and 0.48 ng/mL
- Concentration of somatropin in the blood ([4]; 120 min, nasal, 25 mg, calcium lactate, individual cases No. 29-30 in order): 1.70 ng/mL and 0.32 ng/mL
- Concentration of somatropin in the blood ([4]; 150 min, nasal 6.825 somatropin unit/25 mg, calcium carbonate, individual cases No. 31-32 in order): 0.59 ng/mL and 0.37 ng/mL
- Concentration of somatropin in the blood ([4]; 150 min, nasal, 25 mg, calcium lactate, individual cases No. 29-30 in order): 0.24 ng/mL
- Concentration of somatropin in the blood ([4]; 180 min, nasal 6.825 somatropin unit/25 mg, calcium carbonate, individual cases No. 31-32 in order): 1.67 ng/mL and 0.48 ng/mL
- Concentration of somatropin in the blood ([4]; 180 min, nasal, 25 mg, calcium lactate, individual cases No. 29-30 in order): 0.45 ng/mL and 1.02 ng/mL
- absorption through nasal route ([4]; calcium lactate and calcium carbonate): high extent of absorption
- absorption into the body [2]: well absorbed into the body
- clinical effects [2]: high clinical effects
